Measurements reported in patent US10934351B2, “Cancer stem cell-specific molecule” (CHUGAI SEIYAKU KABUSHIKI KAISHA, priority 2011, dated 2021).

B1: BMP4: bone morphogenetic protein 4, polypeptide of SEQ ID NO: 4 (R&D Systems) (protein, listed as Homo sapiens)
chain: MIPGNRMLMVVLLCQVLLGGASHASLIPETGKKKVAEIQGHAGGRRSGQSHELLRDFEATLLQMFGLRRRPQPSKSAVIPDYMRDLYRLQSGEEEEEQIHSTGLEYPERPASRANTVRSFHHEEHLENIPGTSENSAFRFLFNLSSIPENEVISSAELRLFREQVDQGPDWERGFHRINIYEVMKPPAEVVPGHLITRLLDTRLVHHNVTRWETFDVSPAVLRWTREKQPNYGLAIEVTHLHQTRTHQGQHVRISRSLPQGSGNWAQLRPLLVTFGHDGRGHALTRRRRAKRSPKHHSQRARKKNKNCRRHSLYVDFSDVGWNDWIVAPPGYQAFYCHGDCPFPLADHLNSTNHAIVQTLVNSVNSSIPKACCVPTELSAISMLYLDEYDKVVLKNYQEMVVEGCGCR
B2: EPCAM (protein)
chain: QEECVCENYKLAVNCFVNNNRQCQCTSVGAQNTVICSKLAAKCLVMKAEMNGSKLGRRAKPEGALQNNDGLYDPDCDESGLFKAKQCNGTSMCWCVNTAGVRRTDKDTEITCSERVRTYWIIIELKHKAREKPYDSKSLRTALQKEITTRYQLDPKFITSILYENNVITIDLVQNSSQKTQNDVDIADVAYYFEKDVKGESLFHSKKMDLTVNGEQLDLDPGQTLIYYVDEKAPEFSMQGLKAGVIAVIVVVVIAVVAGIVVLVISRKKRMAKYEKAEIKEMGEMHRELNA

How the values were obtained:
[1] = system: PLR123; assay: Differentiation-enhancing effect of BMP4 (CK20 expression, quantitative real-time PCR); format: cell-based, human; conditions: BMP4 20 nM; irinotecan-non-treated and irinotecan-treated PLR123 (FIG. 73B)
Description: (§1) BMP4 was assessed for the differentiation-enhancing effect on irinotecan-non-treated and irinotecan-treated PLR59 and PLR123. To assess the differentiation-enhancing effect on irinotecan-non-treated cells, PLR59 and PLR123 cells suspended in the media where BMP4 (R&D Systems; a final concentration of 20 nM) or a control buffer was added to culture media were seeded at a cell density of 5×10^5 cells/1.5 ml/well to each well of a 12-well plate. The cells were passaged while changing the culture media with the same type of medium 2, 4, and 7 days after seeding. To assess the differentiation-enhancing effect on irinotecan-treated cells, PLR59 or PLR123 was seeded at a cell density of 17×10^5 cells/5 ml/flask to a 12.5-ml culture flask. Following day, irinotecan was added at a final concentration of 15 μM. The flask was incubated at 37° C. for 72 hours in a CO2 incubator. Then, the medium in the flask was changed with a medium containing BMP4 or a control buffer. The medium was further changed with the same type of medium 2, 4, and 7 days after the initial medium change. […]
(§2) Quantitative real-time PCR was carried out using the cDNAs isolated as described above.

[2] = system: PLR59; assay: as above; format: cell-based, human; conditions: BMP4 20 nM; irinotecan-non-treated and irinotecan-treated PLR59 (FIG. 73A)
Description: as §1, §2

[3] = system: irinotecan-non-treated PLR123; assay: Flow cytometry (FCM) binding activity of commercially available antibodies to cell-surface antigens; set-up: species or system human; conditions: with antibody
Description: (§3) The present inventors tested whether an anti-tumor effect can be expected with target therapy using a membrane protein expressed at a high level as the target in irinotecan-treated or non-treated PLR59 and PLR123. Commercially available antibodies shown in Table 12 were assessed by flow cytometry (FCM) for the binding activity to antigens expressed on the cell surface of irinotecan-treated or non-treated PLR59 or PLR123.

[4] = system: irinotecan-non-treated PLR59; assay: as above; set-up: species or system human; conditions: with antibody
Description: as §3

[5] = system: irinotecan-non-treated PLR123; assay: Internalization activity / anti-tumor effect with Mab-ZAP or Rat-ZAP (CellTiter-Glo); format: cell-based, human; conditions: with Mab-ZAP or Rat-ZAP 1 μg/ml, 72 hours
Description: (§4) Mab-ZAP and Rat-ZAP are anti-mouse IgG antibody and anti-rat IgG antibody, respectively, conjugated with saporin, a toxin that inhibits protein synthesis (Advanced Targeting Systems). To assess the activity of internalization into irinotecan-non-treated cells, PLR59 and PLR123 cells were seeded at a cell density of 30000 cells/80 μl/well to respective wells of a 96-well plate. Following day, each antibody solution was added at a final concentration of 0.01, 0.1, or 1 μg/ml to the respective wells. Then, Mab-ZAP or Rat-ZAP was added at a final concentration 1 μg/ml to the respective wells, and the plate was incubated at 37° C. for 72 hours in a CO2 incubator. To assess the activity of internalization into irinotecan-treated cells, PLR59 and PLR123 cells were seeded in a 96-well plate, and irinotecan was added at a final concentration of 15 μM to each well. The plate was incubated at 37° C. for 72 hours in a CO2 incubator. Various antibodies were assessed for the activity of internalization to cells cultured as described above in the presence or absence of irinotecan. For assay, the various antibodies were each assessed for the internalization activity into cells contained in each well where the medium was replaced with the same irinotecan-free medium as used for irinotecan-non-treated cells. Seventy-two hours after addition of antibodies and Mab-ZAP or Rat-ZAP, 10 μl of 3% SDS (Nacalai Tesque) was added to each well of the plate. The cells in the plate were lysed thoroughly by stirring the plate using a plate mixer. Then, 100 μl of CellTiter-Glo™ Luminescent Cell Viability Assay (Promega) was added to each well. The mixture in each well was assayed to determine its luminescent signal. […] In Table 14, symbols, −, +, ++, and +++, represent relative values for the internalization activity when a test antibody was assayed at a concentration of […]. […] Symbols, −, +, ++, and +++, indicate that the relative value is less than 5%, 5% or more and less than 15%, 15% or more and less than 25%, and 25% or more, respectively.

[6] = system: irinotecan-treated PLR59; assay: as above; format: cell-based, human; conditions: PLR59, Irinotecan-treated (15 μM, 72 hours)
Description: as §4

[7] = system: irinotecan-treated PLR123; assay: as above; format: cell-based, human; conditions: PLR123, Irinotecan-treated (15 μM, 72 hours)
Description: as §4

[8] = system: irinotecan-non-treated PLR59; assay: as above; format: cell-based, human; conditions: with Mab-ZAP or Rat-ZAP 1 μg/ml, 72 hours
Description: as §4

Molecule	CK20 expression level [1]	CK20 expression level [2]	binding activity by flow cytometry (FCM), Antibody + [3]	binding activity by flow cytometry (FCM), Antibody + [4]	internalization activity level [5]	internalization activity level [6]	internalization activity level [7]	internalization activity level [8]
B1	elevated CK20 levels	elevated CK20 levels	–	–	–	–	–	–
B2	–	–	7701	7563	+++ (25% or more)	+++ (25% or more)	+++ (25% or more)	+++ (25% or more)
